These results are taken from patent US20250263459A1, “STABILIZED PACAP PEPTIDE” (SENJU PHARMACEUTICAL CO., LTD., priority 2019, published 2025).

Non-standard residues stand in square brackets, D forms with d. No end group written: not given here. Ala(1H-tetrazol-5-yl) = N[C@@H](Cc1nnn[nH]1)C(=O)O; Tz = tetrazole-substituted aspartic acid; Aib = CC(C)(N)C(=O)O

First the molecules themselves.
B1: Peptide 27 (peptide)
peptide: HSXGIFAXAYSRYRKQLAVKKYLAAVL
modifications: N-terminal Ac; tetrazole-substituted aspartic acid (Tz) at positions 3 and 8; C-terminal amide (NH2)
B2: Peptide 23 (peptide)
peptide: HSXGAFTXSYSRYRKQLAVKKYLAAVL
modifications: N-terminal Ac; tetrazole-substituted aspartic acid (Tz) at positions 3 and 8; C-terminal amide (NH2)
B3: Peptide 13 (peptide)
peptide: HSXGIFTXSYSRYRKQXAVKKYLAAVL
modifications: D-form tetrazole-substituted aspartic acid (Tz(D)) at positions 3 and 8; norleucine (Nl) at position 17; C-terminal amide (NH2)
B4: Peptide 24 (peptide)
peptide: HSXGIFAXSYSRYRKQLAVKKYLAAVL
modifications: N-terminal Ac; tetrazole-substituted aspartic acid (Tz) at positions 3 and 8; C-terminal amide (NH2)
B5: Peptide 14 (peptide)
peptide: HSXGIFTXSYSRYRKQXAVKKYLAAVL
modifications: tetrazole-substituted aspartic acid (Tz) at position 3; D-form tetrazole-substituted aspartic acid (Tz(D)) at position 8; norleucine (Nl) at position 17; C-terminal amide (NH2)
B6: Peptide 20 (peptide)
peptide: HSXGIFTXSYSRYRKQXAVKKYLAAVL
modifications: not fully specified; N-terminal CH3CH2CH2CH2CO; tetrazole-substituted aspartic acid (Tz) at positions 3 and 8; norleucine (Nl) at position 17; C-terminal amide (NH2)
B7: Peptide 9 (peptide)
peptide: HSXGIFTXSYSRYRKQMAVKKYLAAV
modifications: tetrazole-substituted aspartic acid (Tz, racemic) at positions 3 and 8; C-terminal amide (NH2)
B8: Peptide 17 (peptide)
peptide: HSXGIFTXSYSRYRKQXAVKKYLAAVL
modifications: N-terminal CH3CH2CO; tetrazole-substituted aspartic acid (Tz) at positions 3 and 8; norleucine (Nl) at position 17; C-terminal amide (NH2)
B9: Peptide 25 (peptide)
peptide: HAXGIFAXSYSRYRKQLAVKKYLAAVL
modifications: N-terminal Ac; tetrazole-substituted aspartic acid (Tz) at positions 3 and 8; C-terminal amide (NH2)
B10: Peptide 22 (peptide)
peptide: HSXGIFTXSYSRYRKQXAVKKYLAAVL
modifications: N-terminal Ac (CH3CO); oxadiazolone-substituted aspartic acid (5Oxa) at positions 3 and 8; norleucine (Nl) at position 17; C-terminal amide (NH2)
B11: Peptide 19 (peptide)
peptide: HSXGIFTXSYSRYRKQXAVKKYLAAVL
modifications: N-terminal (CH3)2CHCO; tetrazole-substituted aspartic acid (Tz) at positions 3 and 8; norleucine (Nl) at position 17; C-terminal amide (NH2)
B12: Peptide 12 (peptide)
peptide: MHSXGIFTXSYSRYRKQLAVKKYLAAVL
modifications: tetrazole-substituted aspartic acid (Tz) at positions 4 and 9 of this 28-residue peptide (positions 3 and 8 of PACAP27); C-terminal amide (NH2)
B13: Peptide 28 (peptide)
peptide: HSXGIFAXSYSRYRKALAVKKYLAAVL
modifications: N-terminal Ac; tetrazole-substituted aspartic acid (Tz) at positions 3 and 8; C-terminal amide (NH2)
B14: Peptide 18 (peptide)
peptide: HSXGIFTXSYSRYRKQXAVKKYLAAVL
modifications: N-terminal CH3CH2CH2CO; tetrazole-substituted aspartic acid (Tz) at positions 3 and 8; norleucine (Nl) at position 17; C-terminal amide (NH2)
B15: Peptide 10 (peptide)
peptide: HSXGIFTXSYSRYRKQLAVKKYLAAVL
modifications: sulfoxy-substituted aspartic acid (cya) at positions 3 and 8; C-terminal amide (NH2)
B16: Peptide 15 (peptide)
peptide: HSXGIFTXSYSRYRKQXAVKKYLAAVL
modifications: D-form tetrazole-substituted aspartic acid (Tz(D)) at position 3; tetrazole-substituted aspartic acid (Tz) at position 8; norleucine (Nl) at position 17; C-terminal amide (NH2)
B17: Peptide 11 (peptide)
peptide: HSXGIFTXSYSRYRKQXAVKKYLAAVL
modifications: sulfoxy-substituted aspartic acid (cya) at positions 3 and 8; norleucine (Nl) at position 17; C-terminal amide (NH2)
B18: Peptide 21 (peptide)
peptide: HSXGIFTXSYSRYRKQXAVKKYLAAVL
modifications: N-terminal (CH3)2CHCH2CO; tetrazole-substituted aspartic acid (Tz) at positions 3 and 8; norleucine (Nl) at position 17; C-terminal amide (NH2)
B19: Peptide 16 (peptide)
peptide: HSXGIFTXSYSRYRKQXAVKKYLAAVL
modifications: tetrazole-substituted aspartic acid (Tz) at position 3; tetrazole-substituted glutamic acid (egTz) at position 8; norleucine (Nl) at position 17; C-terminal amide (NH2)
B20: Peptide 29 (peptide)
peptide: HSXGIFAXSYSRYRKQAAVKKYLAAVL
modifications: N-terminal Ac; tetrazole-substituted aspartic acid (Tz) at positions 3 and 8; C-terminal amide (NH2)

The target of the first assay is T1, PAC1 receptor (UniProt P41586 21-468, limits assumed).
T1 sequence (looked up): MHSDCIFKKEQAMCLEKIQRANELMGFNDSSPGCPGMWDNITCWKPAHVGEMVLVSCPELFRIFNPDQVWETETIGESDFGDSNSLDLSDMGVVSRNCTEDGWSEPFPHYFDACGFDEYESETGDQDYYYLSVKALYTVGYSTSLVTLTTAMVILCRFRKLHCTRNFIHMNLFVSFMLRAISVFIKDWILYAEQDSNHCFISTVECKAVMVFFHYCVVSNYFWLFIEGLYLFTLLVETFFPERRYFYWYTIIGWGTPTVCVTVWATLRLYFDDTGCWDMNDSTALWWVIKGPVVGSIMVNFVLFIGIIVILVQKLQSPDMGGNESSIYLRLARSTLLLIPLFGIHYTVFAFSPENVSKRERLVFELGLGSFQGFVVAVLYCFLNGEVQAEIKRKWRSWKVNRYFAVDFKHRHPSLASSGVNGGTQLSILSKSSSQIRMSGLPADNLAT
Put plainly: cell-based or functional assay.
Take B1: the “EC50, cAMP assay (Hit Hunter cAMP, chemiluminescence RLU)” value (“EC50, cAMP assay” for short) amounted to 2.53 nM.
Turning to HS[Tz]GIFA[Tz]SY[Aib]RYRKQMAVKKYLAAVL-NH2 (also: Tz racemic) [Peptide 5], the “EC50, cAMP assay” value came out at 0.695 nM.
For the molecule HS[Tz]GIFA[Tz]AYARYRKQMAVKKYLAAVL-NH2 (also: Tz racemic) [Peptide 3], the “EC50, cAMP assay” value came out at 0.689 nM.
The same measure, in the same setting: for B2 the value was 1.15 nM; for HS[Tz]GIFA[Tz][Aib]YSRYRKQMAVKKYLAAVL-NH2 (also: Tz racemic) [Peptide 4], 2.36 nM.
On the same count and under the same terms, next, HS[Tz]GIFT[Tz][Aib]Y[Aib]RYRKQMAVKKYLAAVL-NH2 (also: Tz racemic) [Peptide 7]: 0.319 nM; HS[Tz]GIFA[Tz][Aib]Y[Aib]RYRKQMAVKKYLAAVL-NH2 (also: Tz racemic) [Peptide 6]: 1.17 nM; Ac-HA[Tz]GIFT[Tz]SYSRYRKALAVKKYLAAVL-NH2 [Peptide 26]: 0.209 nM.
B3: the “EC50, cAMP assay” value came out at 0.738 nM.
With B4, the “EC50, cAMP assay” value came to 1.26 nM.
With B5, the “EC50, cAMP assay” value came out at 0.857 nM.
The same measure, in the same setting: for B6 the value was 0.574 nM; for B7, 0.287 nM; for B8, 0.398 nM.
The same measure, in the same setting: next, B9: 0.693 nM; B10: 0.376 nM.
On the same count and under the same terms, next, Ac-HA[Tz]GIFA[Tz]AYSRYRKAAAVKKYLAAVL-NH2 [Peptide 30]: 2.29 nM.
On to B11, for which the “EC50, cAMP assay” value was determined as 0.256 nM.
Same read-out and setting: next, B12: 4.28 nM.
Same read-out and setting: next, B13: 2.12 nM; B14: 0.189 nM.
For HS[Tz]GIFA[Tz]SYARYRKQMAVKKYLAAVL-NH2 (also: Tz racemic) [Peptide 2], the “EC50, cAMP assay” value was determined as 0.61 nM.
Turning to B15, the “EC50, cAMP assay” value came out at 0.447 nM.
The same measure, in the same setting: next, HS[Ala(1H-tetrazol-5-yl)]GIFA[Ala(1H-tetrazol-5-yl)]AYSRYRKQMAVKKYLAAVL-NH2 (also: Tz racemic at 3 and 8) [Peptide 1]: 1.22 nM; B16: 0.079 nM.
The same measure, in the same setting: next, B17: 0.911 nM; B18: 1.13 nM; B19: 1.62 nM.
On to HS[Tz]GIFT[Tz]SYSRYRKQMAVKKYLA-NH2 (also: Tz racemic) [Peptide 8], for which the “EC50, cAMP assay” value was found to be 0.679 nM.
Consider B20, for which the “EC50, cAMP assay” value was 3.28 nM.

A further assay concerns the target T2, VPAC1 receptor (UniProt P32241 31-457, limits assumed).
T2 sequence (looked up): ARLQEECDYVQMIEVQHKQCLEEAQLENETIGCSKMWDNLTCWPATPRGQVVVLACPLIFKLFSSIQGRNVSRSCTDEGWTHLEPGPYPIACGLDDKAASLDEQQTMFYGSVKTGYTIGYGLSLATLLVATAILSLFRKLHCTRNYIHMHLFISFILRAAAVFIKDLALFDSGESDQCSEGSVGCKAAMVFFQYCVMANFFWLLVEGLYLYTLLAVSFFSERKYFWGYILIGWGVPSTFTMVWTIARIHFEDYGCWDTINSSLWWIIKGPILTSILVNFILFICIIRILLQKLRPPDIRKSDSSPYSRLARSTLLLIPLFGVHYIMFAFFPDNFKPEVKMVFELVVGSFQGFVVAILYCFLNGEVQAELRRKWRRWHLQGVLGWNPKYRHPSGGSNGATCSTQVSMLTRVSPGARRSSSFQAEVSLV
Put plainly: cell-based or functional assay.
For B1, the “EC50, cAMP assay” value came to 0.111 nM.
Same read-out and setting: next, HS[Tz]GIFA[Tz]SY[Aib]RYRKQMAVKKYLAAVL-NH2 (also: Tz racemic) [Peptide 5]: 0.078 nM; HS[Tz]GIFA[Tz]AYARYRKQMAVKKYLAAVL-NH2 (also: Tz racemic) [Peptide 3]: 0.111 nM; B2: 0.047 nM.
For the molecule HS[Tz]GIFA[Tz][Aib]YSRYRKQMAVKKYLAAVL-NH2 (also: Tz racemic) [Peptide 4], the “EC50, cAMP assay” value was 0.121 nM.
On the same count and under the same terms, for HS[Tz]GIFT[Tz][Aib]Y[Aib]RYRKQMAVKKYLAAVL-NH2 (also: Tz racemic) [Peptide 7] the value was 0.096 nM.
With HS[Tz]GIFA[Tz][Aib]Y[Aib]RYRKQMAVKKYLAAVL-NH2 (also: Tz racemic) [Peptide 6], the “EC50, cAMP assay” value was 0.11 nM.
Still for that read-out and setting: next, Ac-HA[Tz]GIFT[Tz]SYSRYRKALAVKKYLAAVL-NH2 [Peptide 26]: 0.068 nM; B3: 0.082 nM.
On the same count and under the same terms, for B4 the value was 0.042 nM; for B5, 0.107 nM.
Regarding B6, the “EC50, cAMP assay” value was 0.131 nM.
As to B7, the “EC50, cAMP assay” value came to 0.079 nM.
For the molecule B8, the “EC50, cAMP assay” value came to 0.071 nM.
For B9, the “EC50, cAMP assay” value is 0.041 nM.
On the same count and under the same terms, for B10 the value was 0.077 nM; for Ac-HA[Tz]GIFA[Tz]AYSRYRKAAAVKKYLAAVL-NH2 [Peptide 30], 0.113 nM.
The same measure, in the same setting: next, B11: 0.069 nM; B12: 0.651 nM; B13: 0.072 nM.
As for B14, the “EC50, cAMP assay” value was found to be 0.069 nM.
For the molecule HS[Tz]GIFA[Tz]SYARYRKQMAVKKYLAAVL-NH2 (also: Tz racemic) [Peptide 2], the “EC50, cAMP assay” value turned out to be 0.085 nM.
On the same count and under the same terms, for B15 the value was 0.057 nM; for HS[Ala(1H-tetrazol-5-yl)]GIFA[Ala(1H-tetrazol-5-yl)]AYSRYRKQMAVKKYLAAVL-NH2 (also: Tz racemic at 3 and 8) [Peptide 1], 0.097 nM.
On the same count and under the same terms, for B16 the value was 0.243 nM.
Still for that read-out and setting: for B17 the value was 0.08 nM; for B18, 0.141 nM.
Consider B19, for which the “EC50, cAMP assay” value amounted to 0.142 nM.
Consider HS[Tz]GIFT[Tz]SYSRYRKQMAVKKYLA-NH2 (also: Tz racemic) [Peptide 8], for which the “EC50, cAMP assay” value came to 0.045 nM.
On to B20, for which the “EC50, cAMP assay” value stood at 0.123 nM.
